# In patent US20230285583A1, “LIQUID FORMULATION OF LONG-ACTING CONJUGATE OF GLUCAGON, GLP-1, AND GIP TRIGONAL AGONIST” (HANMI PHARM, CO., LTD., priority 2020, published 2023):
# Bridge positions count the residues as written; N and C are the ends. Square brackets hold non-standard residues; d marks the D form. Ends that are not written are not given here. * marks the point of attachment. Acetyl(2-(4-imidazolyl)) = O=C(Cc1c[nH]cn1)*; Aib = CC(C)(N)C(=O)O
# T1: human GIP receptor (human, UniProt P48546 22-466)
# T1 sequence (looked up): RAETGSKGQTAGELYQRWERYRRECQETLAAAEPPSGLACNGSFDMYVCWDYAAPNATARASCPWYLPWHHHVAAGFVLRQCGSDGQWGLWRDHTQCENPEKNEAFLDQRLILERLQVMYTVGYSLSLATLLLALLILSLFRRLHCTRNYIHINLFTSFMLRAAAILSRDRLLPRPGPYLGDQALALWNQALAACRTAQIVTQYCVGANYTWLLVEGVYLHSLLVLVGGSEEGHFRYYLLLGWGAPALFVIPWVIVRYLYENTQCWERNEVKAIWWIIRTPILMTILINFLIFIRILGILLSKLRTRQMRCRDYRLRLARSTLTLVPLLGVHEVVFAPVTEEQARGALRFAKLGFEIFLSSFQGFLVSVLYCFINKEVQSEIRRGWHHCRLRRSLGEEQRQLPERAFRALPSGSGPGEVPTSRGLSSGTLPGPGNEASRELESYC
# Molecular target: T1, human GIP receptor
# Assay: cell-based or functional assay
row,Binder,In Vitro Activity Compared to Native Peptide (%) vs. GIP (relative titer from cAMP EC50) [%]
1,Y[Aib]QGTFTSDYSKYLDECRAKEFVQWLLDHHPSSGQPPPS (bridge 16-20; not fully specified (bridges)) [trigonal agonist of SEQ ID NO: 1],22.7
2,H[Aib]QGTFTSDYSKYLDEKACKEFVQWLLAQ (bridge 16-20; not fully specified (bridges)) [trigonal agonist of SEQ ID NO: 4],2.4
3,H[Aib]EGTFTSDYSIAMDEIHQKDFVNWLLAQKC (lactam 16-20) [trigonal agonist of SEQ ID NO: 34],1.4
4,H[Aib]EGTFTSDYSIAMDEIHQKDFVDWLLAEKC (bridge 16-20; not fully specified (bridges)) [trigonal agonist of SEQ ID NO: 35],0.1
5,{Acetyl(2-(4-imidazolyl))}-[Aib]EGTFTSDYSIAMDEIHQKDFVNWLLAQC (lactam 15-19) [trigonal agonist of SEQ ID NO: 36],0.4
6,[Acetyl(2-(4-imidazolyl))][Aib]QGTFTSDYSKYLDEKRQKEFVNWLLAQC (bridge 16-20; not fully specified (bridges)) [trigonal agonist of SEQ ID NO: 37],0.2
7,[Acetyl(2-(4-imidazolyl))][Aib]EGTFTSDYSIAMDEIHQKDFVDWLLAEKC (bridge 16-20; not fully specified (bridges)) [trigonal agonist of SEQ ID NO: 38],0.3
8,[Acetyl(2-(4-imidazolyl))][Aib]QGTFTSDYSKYLDEKRQKEFVNWLLAQKC (bridge 16-20; not fully specified (bridges)) [trigonal agonist of SEQ ID NO: 39],0.7
9,Y[Aib]QGTFTSDYSKYLDEKRAKEFVQWLLDHCPSSGQPPPS (bridge 16-20; not fully specified (bridges); ends not checked) [trigonal agonist of SEQ ID NO: 40],5.2
10,Y[Aib]QGTFTSDYSKYLDEKRAKEFVQWLLDCHPSSGQPPPS (bridge 16-20; not fully specified (bridges); ends not checked) [trigonal agonist of SEQ ID NO: 41],2.6
11,Y[Aib]QGTFTSDYSKALDEKAAKEFVNWLLDHHPSSGQPPPSC (bridge 16-20; not fully specified (bridges)) [trigonal agonist of SEQ ID NO: 42],47.1

# Molecular target: human GLP-1 receptor (human, UniProt P43220 24-463)
# Assay: cell-based or functional assay
row,Binder,In Vitro Activity Compared to Native Peptide (%) vs. GLP-1 (relative titer from cAMP EC50) [%]
1,Y[Aib]QGTFTSDYSKYLDECRAKEFVQWLLDHHPSSGQPPPS (bridge 16-20; not fully specified (bridges)) [trigonal agonist of SEQ ID NO: 1],17.8
2,H[Aib]QGTFTSDYSKYLDEKACKEFVQWLLAQ (bridge 16-20; not fully specified (bridges)) [trigonal agonist of SEQ ID NO: 4],135
3,H[Aib]EGTFTSDYSIAMDEIHQKDFVNWLLAQKC (lactam 16-20) [trigonal agonist of SEQ ID NO: 34],41.5
4,H[Aib]EGTFTSDYSIAMDEIHQKDFVDWLLAEKC (bridge 16-20; not fully specified (bridges)) [trigonal agonist of SEQ ID NO: 35],8.1
5,{Acetyl(2-(4-imidazolyl))}-[Aib]EGTFTSDYSIAMDEIHQKDFVNWLLAQC (lactam 15-19) [trigonal agonist of SEQ ID NO: 36],47.3
6,[Acetyl(2-(4-imidazolyl))][Aib]QGTFTSDYSKYLDEKRQKEFVNWLLAQC (bridge 16-20; not fully specified (bridges)) [trigonal agonist of SEQ ID NO: 37],28.4
7,[Acetyl(2-(4-imidazolyl))][Aib]EGTFTSDYSIAMDEIHQKDFVDWLLAEKC (bridge 16-20; not fully specified (bridges)) [trigonal agonist of SEQ ID NO: 38],31.9
8,[Acetyl(2-(4-imidazolyl))][Aib]QGTFTSDYSKYLDEKRQKEFVNWLLAQKC (bridge 16-20; not fully specified (bridges)) [trigonal agonist of SEQ ID NO: 39],5.7
9,Y[Aib]QGTFTSDYSKYLDEKRAKEFVQWLLDHCPSSGQPPPS (bridge 16-20; not fully specified (bridges); ends not checked) [trigonal agonist of SEQ ID NO: 40],34.4
10,Y[Aib]QGTFTSDYSKYLDEKRAKEFVQWLLDCHPSSGQPPPS (bridge 16-20; not fully specified (bridges); ends not checked) [trigonal agonist of SEQ ID NO: 41],10.5
11,Y[Aib]QGTFTSDYSKALDEKAAKEFVNWLLDHHPSSGQPPPSC (bridge 16-20; not fully specified (bridges)) [trigonal agonist of SEQ ID NO: 42],28.1

# Molecular target: human GCG receptor (human, UniProt P47871 26-477)
# Sequence (P47871 26-477): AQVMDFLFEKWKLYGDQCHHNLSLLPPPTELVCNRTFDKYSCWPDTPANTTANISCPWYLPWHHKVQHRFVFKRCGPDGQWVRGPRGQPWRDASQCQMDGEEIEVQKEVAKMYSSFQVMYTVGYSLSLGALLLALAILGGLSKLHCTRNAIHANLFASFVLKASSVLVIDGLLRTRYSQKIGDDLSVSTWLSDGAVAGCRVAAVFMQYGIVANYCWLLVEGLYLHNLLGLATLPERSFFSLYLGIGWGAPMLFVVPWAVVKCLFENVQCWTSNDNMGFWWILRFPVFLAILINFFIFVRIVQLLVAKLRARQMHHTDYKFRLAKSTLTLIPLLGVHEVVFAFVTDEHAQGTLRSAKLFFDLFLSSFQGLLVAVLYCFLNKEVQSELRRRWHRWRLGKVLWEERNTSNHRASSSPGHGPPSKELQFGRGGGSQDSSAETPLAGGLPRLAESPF
# Assay: cell-based or functional assay
row,Binder,In Vitro Activity Compared to Native Peptide (%) vs. Glucagon (relative titer from cAMP EC50) [%]
1,Y[Aib]QGTFTSDYSKYLDECRAKEFVQWLLDHHPSSGQPPPS (bridge 16-20; not fully specified (bridges)) [trigonal agonist of SEQ ID NO: 1],267
2,H[Aib]QGTFTSDYSKYLDEKACKEFVQWLLAQ (bridge 16-20; not fully specified (bridges)) [trigonal agonist of SEQ ID NO: 4],2.2
3,H[Aib]EGTFTSDYSIAMDEIHQKDFVNWLLAQKC (lactam 16-20) [trigonal agonist of SEQ ID NO: 34],4.9
4,H[Aib]EGTFTSDYSIAMDEIHQKDFVDWLLAEKC (bridge 16-20; not fully specified (bridges)) [trigonal agonist of SEQ ID NO: 35],0
5,{Acetyl(2-(4-imidazolyl))}-[Aib]EGTFTSDYSIAMDEIHQKDFVNWLLAQC (lactam 15-19) [trigonal agonist of SEQ ID NO: 36],1.3
6,[Acetyl(2-(4-imidazolyl))][Aib]QGTFTSDYSKYLDEKRQKEFVNWLLAQC (bridge 16-20; not fully specified (bridges)) [trigonal agonist of SEQ ID NO: 37],0.4
7,[Acetyl(2-(4-imidazolyl))][Aib]EGTFTSDYSIAMDEIHQKDFVDWLLAEKC (bridge 16-20; not fully specified (bridges)) [trigonal agonist of SEQ ID NO: 38],16.8
8,[Acetyl(2-(4-imidazolyl))][Aib]QGTFTSDYSKYLDEKRQKEFVNWLLAQKC (bridge 16-20; not fully specified (bridges)) [trigonal agonist of SEQ ID NO: 39],0.3
9,Y[Aib]QGTFTSDYSKYLDEKRAKEFVQWLLDHCPSSGQPPPS (bridge 16-20; not fully specified (bridges); ends not checked) [trigonal agonist of SEQ ID NO: 40],195
10,Y[Aib]QGTFTSDYSKYLDEKRAKEFVQWLLDCHPSSGQPPPS (bridge 16-20; not fully specified (bridges); ends not checked) [trigonal agonist of SEQ ID NO: 41],62.8
11,Y[Aib]QGTFTSDYSKALDEKAAKEFVNWLLDHHPSSGQPPPSC (bridge 16-20; not fully specified (bridges)) [trigonal agonist of SEQ ID NO: 42],8.2
